Measurements reported in IntAct's records for PubMed 16531226.

B1: Serine/threonine-protein phosphatase 5 (Homo sapiens), P53041 (parent)
chain: MAMAEGERTECAEPPRDEPPADGALKRAEELKTQANDYFKAKDYENAIKFYSQAIELNPSNAIYYGNRSLAYLRTECYGYALGDATRAIELDKKYIKGYYRRAASNMALGKFRAALRDYETVVKVKPHDKDAKMKYQECNKIVKQKAFERAIAGDEHKRSVVDSLDIESMTIEDEYSGPKLEDGKVTISFMKELMQWYKDQKKLHRKCAYQILVQVKEVLSKLSTLVETTLKETEKITVCGDTHGQFYDLLNIFELNGLPSETNPYIFNGDFVDRGSFSVEVILTLFGFKLLYPDHFHLLRGNHETDNMNQIYGFEGEVKAKYTAQMYELFSEVFEWLPLAQCINGKVLIMHGGLFSEDGVTLDDIRKIERNRQPPDSGPMCDLLWSDPQPQNGRSISKRGVSCQFGPDVTKAFLEENNLDYIIRSHEVKAEGYEVAHGGRCVTVFSAPNYCDQMGNKASYIHLQGSDLRPQFHQFTAVPHPNVKPMAYANTLLQLGMM

Variants of: B1
Conditions: with hs90b_human HSP90AB1, P08238
Sequence of hs90b_human HSP90AB1, P08238 (P08238 whole entry): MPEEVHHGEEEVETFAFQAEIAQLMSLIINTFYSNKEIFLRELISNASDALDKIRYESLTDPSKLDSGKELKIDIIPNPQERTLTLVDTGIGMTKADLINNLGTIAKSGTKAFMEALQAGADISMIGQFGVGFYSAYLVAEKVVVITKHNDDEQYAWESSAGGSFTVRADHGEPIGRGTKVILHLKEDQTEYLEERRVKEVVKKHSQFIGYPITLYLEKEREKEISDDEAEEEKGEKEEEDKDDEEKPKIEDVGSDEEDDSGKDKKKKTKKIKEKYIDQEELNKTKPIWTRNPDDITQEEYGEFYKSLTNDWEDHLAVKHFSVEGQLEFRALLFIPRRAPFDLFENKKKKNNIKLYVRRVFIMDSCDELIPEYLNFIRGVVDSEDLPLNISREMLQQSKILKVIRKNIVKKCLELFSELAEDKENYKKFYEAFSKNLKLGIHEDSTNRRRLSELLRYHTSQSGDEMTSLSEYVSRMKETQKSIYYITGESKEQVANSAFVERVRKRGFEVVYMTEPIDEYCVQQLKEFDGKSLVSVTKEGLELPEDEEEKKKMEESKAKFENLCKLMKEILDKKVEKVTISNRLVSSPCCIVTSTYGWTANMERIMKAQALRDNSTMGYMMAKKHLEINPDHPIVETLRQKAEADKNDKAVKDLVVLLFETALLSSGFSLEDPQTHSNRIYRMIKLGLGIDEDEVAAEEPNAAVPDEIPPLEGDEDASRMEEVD

Row | effect of a mutation on the interaction | Variant
1 | increasing interaction | MAMAEGERTECAEPPRDEPPADGALKRAEELKTQANDYFKAKDYENAIKFYSQAIELNPSNAIYYGNRSLAYLRTECYGYALNDATRAIELDKKYIKGYYRRAASNMALGKFRAALRDYETVVKVKPHDKDAKMKYQECNKIVKQKAFERAIAGDEHKRSVVDSLDIESMTIEDEYSGPKLEDGKVTISFMKELMQWYKDQKKLHRKCAYQILVQVKEVLSKLSTLVETTLKETEKITVCGDTHGQFYDLLNIFELNGLPSETNPYIFNGDFVDRGSFSVEVILTLFGFKLLYPDHFHLLRGNHETDNMNQIYGFEGEVKAKYTAQMYELFSEVFEWLPLAQCINGKVLIMHGGLFSEDGVTLDDIRKIERNRQPPDSGPMCDLLWSDPQPQNGRSISKRGVSCQFGPDVTKAFLEENNLDYIIRSHEVKAEGYEVAHGGRCVTVFSAPNYCDQMGNKASYIHLQGSDLRPQFHQFTAVPHPNVKPMAYANTLLQLGMM [G83N]
